From patent US20240424125A1 (Zymeworks, published 2024)

Legend:
human FRα on cells [1] = biological target: T1, human FRα on cells (human, UniProt P15328 25-234); assay: cell-based or functional assay
human FRα on cells [2] = biological target: T1, human FRα on cells; assay: cell-based or functional assay; remark: listed apart in the source

T1 sequence (P15328 25-234 limits assumed): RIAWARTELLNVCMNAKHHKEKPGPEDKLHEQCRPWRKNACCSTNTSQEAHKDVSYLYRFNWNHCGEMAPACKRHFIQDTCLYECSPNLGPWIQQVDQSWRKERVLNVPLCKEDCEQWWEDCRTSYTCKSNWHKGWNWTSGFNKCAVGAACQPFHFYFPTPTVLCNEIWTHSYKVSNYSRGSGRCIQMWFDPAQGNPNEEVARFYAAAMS

| Binder | 3D EC50 (nM), in vitro cytotoxicity, HEC-1-A spheroids, 6 days (human FRα on cells [1]) [nM] | 3D EC50 (nM), in vitro cytotoxicity, IGROV-1 spheroids, 6 days (human FRα on cells [1]) [nM] | 3D EC50 (nM), in vitro cytotoxicity, OVCAR-3 spheroids, 6 days (human FRα on cells [1]) [nM] | 3D EC50 (nM), in vitro cytotoxicity, T-47D spheroids, 6 days (human FRα on cells [1]) [nM] | EC50 (nM), in vitro cytotoxicity, 2D monolayer, JEG-3 cells, 4 days (human FRα on cells [2]) [nM] | EC50 (nM), in vitro cytotoxicity, 2D monolayer, KB-HeLa cells, 4 days (human FRα on cells [2]) [nM] | EC50 (nM), in vitro cytotoxicity, 2D monolayer, T-47D cells, 4 days (human FRα on cells [2]) [nM] |
| --- | --- | --- | --- | --- | --- | --- | --- |
| v30384-MC-GGFG-AM-DXd1 (antibody, human IgG1, kappa, drug-linker MC-GGFG-AM-DXd1 on the antibody at DAR 8; conjugated residues not stated) heavy 1: EVQLLESGGGLVQPGGSLRLSCAVSGFSLSSYGVSWVRQAPGKGLEWIGAVNSGGSAYYADSVKGRSTISRDNSKNTVYLQMNSLRAEDTAVYYCARSGSGYPMDYLAIWGQGTLVTVSSASTKGPSVFPLAPSSKSTSGGTAALGCLVKDYFPEPVTVSWNSGALTSGVHTFPAVLQSSGLYSLSSVVTVPSSSLGTQTYICNVNHKPSNTKVDKKVEPKSCDKTHTCPPCPAPELLGGPSVFLFPPKPKDTLMISRTPEVTCVVVDVSHEDPEVKFNWYVDGVEVHNAKTKPREEQYNSTYRVVSVLTVLHQDWLNGKEYKCKVSNKALPAPIEKTISKAKGQPREPQVYVYPPSRDELTKNQVSLTCLVKGFYPSDIAVEWESNGQPENNYKTTPPVLDSDGSFALVSKLTVDKSRWQQGNVFSCSVMHEALHNHYTQKSLSLSPG heavy 2: not shown light: DYQMTQSPSSVSASVGDRVTITCRASQSIGDWLAWYQQKPGKAPKLLIYEASTLASGVPSRFSGSGSGTDFTLTISSVQPEDAATYYCQQGYGRSNVDNIFGGGTKVEVKRTVAAPSVFIFPPSDEQLKSGTASVVCLLNNFYPREAKVQWKVDNALQSGNSQESVTEQDSKDSTYSLSSTLTLSKADYEKHKVYACEVTHQGLSSPVTKSFNRGEC | 1.1 | 0.5 | 8.2 | 0.9 | 0.54 | 0.52 | 2.08 |
| v30384-MT-GGFG-Compound 140 (antibody, human IgG1, kappa, drug-linker MT-GGFG-Compound 140 on the antibody at DAR 8; conjugated residues not stated) heavy 1: EVQLLESGGGLVQPGGSLRLSCAVSGFSLSSYGVSWVRQAPGKGLEWIGAVNSGGSAYYADSVKGRSTISRDNSKNTVYLQMNSLRAEDTAVYYCARSGSGYPMDYLAIWGQGTLVTVSSASTKGPSVFPLAPSSKSTSGGTAALGCLVKDYFPEPVTVSWNSGALTSGVHTFPAVLQSSGLYSLSSVVTVPSSSLGTQTYICNVNHKPSNTKVDKKVEPKSCDKTHTCPPCPAPELLGGPSVFLFPPKPKDTLMISRTPEVTCVVVDVSHEDPEVKFNWYVDGVEVHNAKTKPREEQYNSTYRVVSVLTVLHQDWLNGKEYKCKVSNKALPAPIEKTISKAKGQPREPQVYVYPPSRDELTKNQVSLTCLVKGFYPSDIAVEWESNGQPENNYKTTPPVLDSDGSFALVSKLTVDKSRWQQGNVFSCSVMHEALHNHYTQKSLSLSPG heavy 2: not shown light: DYQMTQSPSSVSASVGDRVTITCRASQSIGDWLAWYQQKPGKAPKLLIYEASTLASGVPSRFSGSGSGTDFTLTISSVQPEDAATYYCQQGYGRSNVDNIFGGGTKVEVKRTVAAPSVFIFPPSDEQLKSGTASVVCLLNNFYPREAKVQWKVDNALQSGNSQESVTEQDSKDSTYSLSSTLTLSKADYEKHKVYACEVTHQGLSSPVTKSFNRGEC | – | – | – | – | 1.29 | 3.75 | 12.4 |
| v30384-MT-GGFG-Compound 148 (antibody, human IgG1, kappa, drug-linker MT-GGFG-Compound 148 on the antibody at DAR 8; conjugated residues not stated) heavy 1: EVQLLESGGGLVQPGGSLRLSCAVSGFSLSSYGVSWVRQAPGKGLEWIGAVNSGGSAYYADSVKGRSTISRDNSKNTVYLQMNSLRAEDTAVYYCARSGSGYPMDYLAIWGQGTLVTVSSASTKGPSVFPLAPSSKSTSGGTAALGCLVKDYFPEPVTVSWNSGALTSGVHTFPAVLQSSGLYSLSSVVTVPSSSLGTQTYICNVNHKPSNTKVDKKVEPKSCDKTHTCPPCPAPELLGGPSVFLFPPKPKDTLMISRTPEVTCVVVDVSHEDPEVKFNWYVDGVEVHNAKTKPREEQYNSTYRVVSVLTVLHQDWLNGKEYKCKVSNKALPAPIEKTISKAKGQPREPQVYVYPPSRDELTKNQVSLTCLVKGFYPSDIAVEWESNGQPENNYKTTPPVLDSDGSFALVSKLTVDKSRWQQGNVFSCSVMHEALHNHYTQKSLSLSPG heavy 2: not shown light: DYQMTQSPSSVSASVGDRVTITCRASQSIGDWLAWYQQKPGKAPKLLIYEASTLASGVPSRFSGSGSGTDFTLTISSVQPEDAATYYCQQGYGRSNVDNIFGGGTKVEVKRTVAAPSVFIFPPSDEQLKSGTASVVCLLNNFYPREAKVQWKVDNALQSGNSQESVTEQDSKDSTYSLSSTLTLSKADYEKHKVYACEVTHQGLSSPVTKSFNRGEC | – | – | – | – | 0.54 | 0.73 | 3.45 |
| v30384-MC-GGFG-Compound 140 (antibody, human IgG1, kappa, drug-linker MC-GGFG-Compound 140 on the antibody at DAR 8; conjugated residues not stated) heavy 1: EVQLLESGGGLVQPGGSLRLSCAVSGFSLSSYGVSWVRQAPGKGLEWIGAVNSGGSAYYADSVKGRSTISRDNSKNTVYLQMNSLRAEDTAVYYCARSGSGYPMDYLAIWGQGTLVTVSSASTKGPSVFPLAPSSKSTSGGTAALGCLVKDYFPEPVTVSWNSGALTSGVHTFPAVLQSSGLYSLSSVVTVPSSSLGTQTYICNVNHKPSNTKVDKKVEPKSCDKTHTCPPCPAPELLGGPSVFLFPPKPKDTLMISRTPEVTCVVVDVSHEDPEVKFNWYVDGVEVHNAKTKPREEQYNSTYRVVSVLTVLHQDWLNGKEYKCKVSNKALPAPIEKTISKAKGQPREPQVYVYPPSRDELTKNQVSLTCLVKGFYPSDIAVEWESNGQPENNYKTTPPVLDSDGSFALVSKLTVDKSRWQQGNVFSCSVMHEALHNHYTQKSLSLSPG heavy 2: not shown light: DYQMTQSPSSVSASVGDRVTITCRASQSIGDWLAWYQQKPGKAPKLLIYEASTLASGVPSRFSGSGSGTDFTLTISSVQPEDAATYYCQQGYGRSNVDNIFGGGTKVEVKRTVAAPSVFIFPPSDEQLKSGTASVVCLLNNFYPREAKVQWKVDNALQSGNSQESVTEQDSKDSTYSLSSTLTLSKADYEKHKVYACEVTHQGLSSPVTKSFNRGEC | 6.7 | 0.2 | 20.5 | 1.6 | – | – | – |
| v30384-MT-GGFG-AM-Compound 139 (antibody, human IgG1, kappa, drug-linker MT-GGFG-AM-Compound 139 on the antibody at DAR 8; conjugated residues not stated) heavy 1: EVQLLESGGGLVQPGGSLRLSCAVSGFSLSSYGVSWVRQAPGKGLEWIGAVNSGGSAYYADSVKGRSTISRDNSKNTVYLQMNSLRAEDTAVYYCARSGSGYPMDYLAIWGQGTLVTVSSASTKGPSVFPLAPSSKSTSGGTAALGCLVKDYFPEPVTVSWNSGALTSGVHTFPAVLQSSGLYSLSSVVTVPSSSLGTQTYICNVNHKPSNTKVDKKVEPKSCDKTHTCPPCPAPELLGGPSVFLFPPKPKDTLMISRTPEVTCVVVDVSHEDPEVKFNWYVDGVEVHNAKTKPREEQYNSTYRVVSVLTVLHQDWLNGKEYKCKVSNKALPAPIEKTISKAKGQPREPQVYVYPPSRDELTKNQVSLTCLVKGFYPSDIAVEWESNGQPENNYKTTPPVLDSDGSFALVSKLTVDKSRWQQGNVFSCSVMHEALHNHYTQKSLSLSPG heavy 2: not shown light: DYQMTQSPSSVSASVGDRVTITCRASQSIGDWLAWYQQKPGKAPKLLIYEASTLASGVPSRFSGSGSGTDFTLTISSVQPEDAATYYCQQGYGRSNVDNIFGGGTKVEVKRTVAAPSVFIFPPSDEQLKSGTASVVCLLNNFYPREAKVQWKVDNALQSGNSQESVTEQDSKDSTYSLSSTLTLSKADYEKHKVYACEVTHQGLSSPVTKSFNRGEC | 3.9 | 1 | 1.5 | 1.1 | 1.14 | 0.72 | 1.12 |
